Measurements published in patent US20250223627A1, “FLUOROGENIC SUBSTRATES FOR AMINOPEPTIDASE DETECTION IN BIOFLUIDS” (GLYMPSE BIO, INC., priority 2022, published 2025).
Each block holds one substance with its values, some of them ahead of it.

What was measured:
NASH-related proteases = assay: Probe cleavage in mouse plasma, NASH vs healthy (RFU per minute); assay type: biochemical; conditions: for disease contrast (NASH vs healthy): mouse plasma; for ability to distinguish (differentiate) between NASH and healthy samples: activity as RFU per minute in 1% mouse plasma, NASH (CDAHFD) vs healthy (CD)
Protocol: All animals were used in accordance with animal care guidelines. Plasma was obtained from these blood samples by centrifugation at 3,500 RPM for 20 min at 4° C. The plasma was stored at −80° C. until it was needed for experimental purposes.
Samples were mixed with protease substrates and quenchers/reporters in 96-well plates. The 96-well plates were read on a Biotech Synergy H1, using 465,535 excitation/emission settings.
The probes of the present application were able to measure the activity of NASH-related proteases as expressed in Relative Fluorescent Unit (RFU) per minute in the two mouse populations. Probes measuring cathepsin activity were 3-fold higher in protease cleavage kinetics in mice with NASH compared to healthy mice.
Using the method of the above example, PEGylated probes were used to measure the activity of NASH-related proteases, as expressed in RFU per minute in 1% mouse plasma samples.

DPP4 = DPP4 (Homo sapiens, UniProt P27487); assay: Recombinant protease panel, probe cleavage: dpp4; assay type: biochemical; conditions: expressed in RFU per minute
Protocol: Substrate plates were thawed and spun down for 5 minutes to ensure the substrates were at the bottom of the wells. Proteases for each substrate plate were prepared by adding 1 protease per plate. Proteases were then diluted to 15 nM in 2 mL of specified protease buffer (see Table 5). Assay buffer was added to control wells while […] active enzyme in assay buffer was added to each sample well. Plates were spun down and then read immediately after centrifugation.

[1] = tested on: most other probes (FIG. 16)
[2] = tested on: Probe #768, K(Acc)(Sar)G(PEG8)K(Dnp)k
[3] = tested on: Probe #762, K(Acc)(Pro-4-Obzl)G(PEG8)K(Dnp)k
[4] = tested on: Probe #766, K(Acc)(Hyp)G(PEG8)K(Dnp)k

DPP4, sequence (P27487 whole entry, species assumed): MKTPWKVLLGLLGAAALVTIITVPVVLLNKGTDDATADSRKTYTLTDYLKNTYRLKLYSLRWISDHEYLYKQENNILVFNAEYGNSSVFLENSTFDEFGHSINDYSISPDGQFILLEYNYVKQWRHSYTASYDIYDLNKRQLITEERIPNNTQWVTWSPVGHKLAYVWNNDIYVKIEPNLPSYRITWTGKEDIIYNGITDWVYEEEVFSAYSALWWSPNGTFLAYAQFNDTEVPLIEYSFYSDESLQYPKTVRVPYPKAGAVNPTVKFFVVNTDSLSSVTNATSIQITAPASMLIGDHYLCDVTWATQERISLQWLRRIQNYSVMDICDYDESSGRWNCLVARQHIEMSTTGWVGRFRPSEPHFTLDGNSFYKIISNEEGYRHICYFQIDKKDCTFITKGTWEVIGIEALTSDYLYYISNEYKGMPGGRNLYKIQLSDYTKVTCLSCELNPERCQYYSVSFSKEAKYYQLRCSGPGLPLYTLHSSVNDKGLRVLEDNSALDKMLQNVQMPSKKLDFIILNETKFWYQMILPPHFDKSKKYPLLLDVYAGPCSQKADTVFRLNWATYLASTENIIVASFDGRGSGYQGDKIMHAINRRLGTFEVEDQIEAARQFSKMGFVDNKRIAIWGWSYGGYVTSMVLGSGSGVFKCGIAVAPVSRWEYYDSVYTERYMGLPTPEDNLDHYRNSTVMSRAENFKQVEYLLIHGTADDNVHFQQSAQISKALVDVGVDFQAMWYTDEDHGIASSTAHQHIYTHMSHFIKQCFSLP

Substance: AK(Acc)G-PEG8-K(Dnp)-k [Probe #680]
disease contrast (NASH vs healthy) (NASH-related proteases): Lys-Ala motif of Probe #678 (FIG. 13A) displays stronger disease contrast than the Ala-Lys motif of Probe #680

DPPIV (DPP4) protease activity on the probe (cleavage) (DPP4): needed for measuring DPPIV activity
Substance: K(Acc)AG-PEG8-K(Dnp)-k [Probe #678]
ability to distinguish (differentiate) between NASH and healthy samples (NASH-related proteases): ability to distinguish between NASH and healthy samples
ability to distinguish (differentiate) between NASH and healthy samples (NASH-related proteases; listed as probe 678): able to differentiate between NASH and healthy samples
disease contrast (NASH vs healthy) (NASH-related proteases): stronger disease contrast than the Ala-Lys motif of Probe #680

Substance: aminopeptidase n/CD13
hydrolysis of fluorogenic probe by protease [1]: most other probes are susceptible to cleavage
hydrolysis of fluorogenic probe by protease [2]: evade hydrolysis from Aminopeptidase N
hydrolysis of fluorogenic probe by protease [3]: evade hydrolysis from Aminopeptidase N
hydrolysis of fluorogenic probe by protease [4]: evade hydrolysis from Aminopeptidase N

Substance: dipeptidyl-peptidase 4 (DPP4 or DPPIV)
cleavage of fluorogenic substrate (fluorescence over time) (a substrate (FIG. 19C)): a substrate is rapidly cleaved by DPP4 (square markers) but remains intact in buffer alone with no protease present
cleavage of fluorogenic probe by protease panel [2]: selective for dipeptidyl peptidases with strong preferences for DPP4
cleavage of fluorogenic probe by protease panel [4]: selective for dipeptidyl peptidases with strong preferences for DPP4

Substance: dpp2/7
cleavage of fluorogenic probe by protease panel [3]: Probe #762 is selective for DPP2
